# From patent US20240287154A1, “MC3R AGONIST PEPTIDES” (The Regents of the University of Michigan, priority 2021, published 2024)
# Non-standard residues stand in square brackets, D forms with d. d(αMeW) = C[C@@](N)(Cc1c[nH]c2ccccc12)C(=O)O; Phe(4-F) = N[C@@H](Cc1ccc(F)cc1)C(=O)O; Phe(4-I) = N[C@@H](Cc1ccc(I)cc1)C(=O)O; 2Nal = N[C@@H](Cc1ccc2ccccc2c1)C(=O)O; d2Nal = N[C@H](Cc1ccc2ccccc2c1)C(=O)O; dTic = O=C(O)[C@H]1Cc2ccccc2CN1; Nle = CCCC[C@H](N)C(=O)O; dAbu = CC[C@@H](N)C(=O)O; Aib = CC(C)(N)C(=O)O
# Biological target: human MC3R (human, UniProt P41968 1-323)
# Test: cell-based or functional assay
# human MC3R, sequence (P41968 whole entry): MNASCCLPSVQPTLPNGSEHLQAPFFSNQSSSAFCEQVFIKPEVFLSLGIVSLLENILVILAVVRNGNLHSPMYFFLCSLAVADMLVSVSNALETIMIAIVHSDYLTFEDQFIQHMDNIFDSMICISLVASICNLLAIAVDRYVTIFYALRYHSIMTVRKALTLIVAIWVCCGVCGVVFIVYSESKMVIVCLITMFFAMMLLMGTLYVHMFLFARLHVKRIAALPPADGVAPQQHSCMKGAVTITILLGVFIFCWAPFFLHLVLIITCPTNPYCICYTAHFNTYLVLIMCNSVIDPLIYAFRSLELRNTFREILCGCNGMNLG
Binder,MC3R cAMP (EC50) [nM],MC3R selectivity (relative to MC4R)
YVXXHFRWDRFG (Nle at 3; D-Abu at 4; D-Trp at 8) [CTX-1135],1,667
Ac-[Nle][dA]R[Phe(4-I)]R[dW]DRFG-OH (SMILES CCCC[C@H](NC(C)=O)C(=O)N[C@H](C)C(=O)N[C@@H](CCCNC(=N)N)C(=O)N[C@@H](Cc1ccc(I)cc1)C(=O)N[C@@H](CCCNC(=N)N)C(=O)N[C@H](Cc1c[nH]c2ccccc12)C(=O)N[C@@H](CC(=O)O)C(=O)N[C@@H](CCCNC(=N)N)C(=O)N[C@@H](Cc1ccccc1)C(=O)NCC(=O)O) [CTX-1197],13.5,250
Ac-[Nle][dA]HFK[dW]DRFG-OH (SMILES CCCC[C@H](NC(C)=O)C(=O)N[C@H](C)C(=O)N[C@@H](Cc1c[nH]cn1)C(=O)N[C@@H](Cc1ccccc1)C(=O)N[C@@H](CCCCN)C(=O)N[C@H](Cc1c[nH]c2ccccc12)C(=O)N[C@@H](CC(=O)O)C(=O)N[C@@H](CCCNC(=N)N)C(=O)N[C@@H](Cc1ccccc1)C(=O)NCC(=O)O) [CTX-1523],41.7,5320
Ac-[Nle][dAbu]H[Phe(4-I)]R[dW]DRFG-OH (SMILES CCCC[C@H](NC(C)=O)C(=O)N[C@H](CC)C(=O)N[C@@H](Cc1c[nH]cn1)C(=O)N[C@@H](Cc1ccc(I)cc1)C(=O)N[C@@H](CCCNC(=N)N)C(=O)N[C@H](Cc1c[nH]c2ccccc12)C(=O)N[C@@H](CC(=O)O)C(=O)N[C@@H](CCCNC(=N)N)C(=O)N[C@@H](Cc1ccccc1)C(=O)NCC(=O)O) [CTX-1191],3.9,470
Ac-[Nle][dA]H[Phe(4-I)]R[dF]DRFG-OH (SMILES CCCC[C@H](NC(C)=O)C(=O)N[C@H](C)C(=O)N[C@@H](Cc1c[nH]cn1)C(=O)N[C@@H](Cc1ccc(I)cc1)C(=O)N[C@@H](CCCNC(=N)N)C(=O)N[C@H](Cc1ccccc1)C(=O)N[C@@H](CC(=O)O)C(=O)N[C@@H](CCCNC(=N)N)C(=O)N[C@@H](Cc1ccccc1)C(=O)NCC(=O)O) [CTX-1503],124,214
H-YV[Nle]AHFR[dW]D-NH2 (SMILES CCCC[C@H](NC(=O)[C@@H](NC(=O)[C@@H](N)Cc1ccc(O)cc1)C(C)C)C(=O)N[C@@H](C)C(=O)N[C@@H](Cc1c[nH]cn1)C(=O)N[C@@H](Cc1ccccc1)C(=O)N[C@@H](CCCNC(=N)N)C(=O)N[C@H](Cc1c[nH]c2ccccc12)C(=O)N[C@@H](CC(=O)O)C(N)=O) [CTX-1129],1.2,7.5
Ac-[Nle][dA]HFR[dW][dF]RFG-OH (SMILES CCCC[C@H](NC(C)=O)C(=O)N[C@H](C)C(=O)N[C@@H](Cc1c[nH]cn1)C(=O)N[C@@H](Cc1ccccc1)C(=O)N[C@@H](CCCNC(=N)N)C(=O)N[C@H](Cc1c[nH]c2ccccc12)C(=O)N[C@H](Cc1ccccc1)C(=O)N[C@@H](CCCNC(=N)N)C(=O)N[C@@H](Cc1ccccc1)C(=O)NCC(=O)O) [CTX-1530],289,
Ac-[Nle][dA]HFR[dW]FRFG-OH (SMILES CCCC[C@H](NC(C)=O)C(=O)N[C@H](C)C(=O)N[C@@H](Cc1c[nH]cn1)C(=O)N[C@@H](Cc1ccccc1)C(=O)N[C@@H](CCCNC(=N)N)C(=O)N[C@H](Cc1c[nH]c2ccccc12)C(=O)N[C@@H](Cc1ccccc1)C(=O)N[C@@H](CCCNC(=N)N)C(=O)N[C@@H](Cc1ccccc1)C(=O)NCC(=O)O) [CTX-1529],4.8,82
Ac-[Nle][dA]P[Phe(4-I)]R[dF]DRFG-OH (SMILES CCCC[C@H](NC(C)=O)C(=O)N[C@H](C)C(=O)N1CCC[C@H]1C(=O)N[C@@H](Cc1ccc(I)cc1)C(=O)N[C@@H](CCCNC(=N)N)C(=O)N[C@H](Cc1ccccc1)C(=O)N[C@@H](CC(=O)O)C(=O)N[C@@H](CCCNC(=N)N)C(=O)N[C@@H](Cc1ccccc1)C(=O)NCC(=O)O) [CTX-1506],,1
Ac-[Nle][dA]H[Phe(4-I)]R[d2Nal]DRFG-OH (SMILES CCCC[C@H](NC(C)=O)C(=O)N[C@H](C)C(=O)N[C@@H](Cc1c[nH]cn1)C(=O)N[C@@H](Cc1ccc(I)cc1)C(=O)N[C@@H](CCCNC(=N)N)C(=O)N[C@H](Cc1ccc2ccccc2c1)C(=O)N[C@@H](CC(=O)O)C(=O)N[C@@H](CCCNC(=N)N)C(=O)N[C@@H](Cc1ccccc1)C(=O)NCC(=O)O) [CTX-1502],6.7,184
Ac-YVE[Aib]H[Phe(4-I)]R[dW]DRFG-OH (SMILES CC(=O)N[C@@H](Cc1ccc(O)cc1)C(=O)N[C@H](C(=O)N[C@@H](CCC(=O)O)C(=O)NC(C)(C)C(=O)N[C@@H](Cc1c[nH]cn1)C(=O)N[C@@H](Cc1ccc(I)cc1)C(=O)N[C@@H](CCCNC(=N)N)C(=O)N[C@H](Cc1c[nH]c2ccccc12)C(=O)N[C@@H](CC(=O)O)C(=O)N[C@@H](CCCNC(=N)N)C(=O)N[C@@H](Cc1ccccc1)C(=O)NCC(=O)O)C(C)C) [CTX-1195],184,51
Ac-YVE[dAbu]H[Phe(4-I)]R[dW]DRFG-OH (SMILES CC[C@@H](NC(=O)[C@H](CCC(=O)O)NC(=O)[C@@H](NC(=O)[C@H](Cc1ccc(O)cc1)NC(C)=O)C(C)C)C(=O)N[C@@H](Cc1c[nH]cn1)C(=O)N[C@@H](Cc1ccc(I)cc1)C(=O)N[C@@H](CCCNC(=N)N)C(=O)N[C@H](Cc1c[nH]c2ccccc12)C(=O)N[C@@H](CC(=O)O)C(=O)N[C@@H](CCCNC(=N)N)C(=O)N[C@@H](Cc1ccccc1)C(=O)NCC(=O)O) [CTX-1194],34.3,49
Ac-[Nle][dA]H[Phe(4-I)]R[dTic]DRFG-OH [CTX-1504],,1
Ac-[Nle][dA]HFR[dW][dF]RFG-OH (SMILES CCCC[C@H](NC(C)=O)C(=O)N[C@H](C)C(=O)N[C@@H](Cc1c[nH]cn1)C(=O)N[C@@H](Cc1ccccc1)C(=O)N[C@@H](CCCNC(=N)N)C(=O)N[C@H](Cc1c[nH]c2ccccc12)C(=O)N[C@H](Cc1ccccc1)C(=O)N[C@@H](CCCNC(=N)N)C(=O)N[C@@H](Cc1ccccc1)C(=O)NCC(=O)O) [CTX-1531],356,
Ac-[Nle][dA]HFR[d(αMeW)]DRFG-OH (SMILES CCCC[C@H](NC(C)=O)C(=O)N[C@H](C)C(=O)N[C@@H](Cc1c[nH]cn1)C(=O)N[C@@H](Cc1ccccc1)C(=O)N[C@@H](CCCNC(=N)N)C(=O)N[C@](C)(Cc1c[nH]c2ccccc12)C(=O)N[C@@H](CC(=O)O)C(=O)N[C@@H](CCCNC(=N)N)C(=O)N[C@@H](Cc1ccccc1)C(=O)NCC(=O)O) [CTX-1510],181,23
Ac-[Nle][dA]H[2Nal]R[dW]DRFG-OH (SMILES CCCC[C@H](NC(C)=O)C(=O)N[C@H](C)C(=O)N[C@@H](Cc1c[nH]cn1)C(=O)N[C@@H](Cc1ccc2ccccc2c1)C(=O)N[C@@H](CCCNC(=N)N)C(=O)N[C@H](Cc1c[nH]c2ccccc12)C(=O)N[C@@H](CC(=O)O)C(=O)N[C@@H](CCCNC(=N)N)C(=O)N[C@@H](Cc1ccccc1)C(=O)NCC(=O)O) [CTX-1512],13.1,804
Ac-[Nle][dA]HFR[dW]ARFG-OH (SMILES CCCC[C@H](NC(C)=O)C(=O)N[C@H](C)C(=O)N[C@@H](Cc1c[nH]cn1)C(=O)N[C@@H](Cc1ccccc1)C(=O)N[C@@H](CCCNC(=N)N)C(=O)N[C@H](Cc1c[nH]c2ccccc12)C(=O)N[C@@H](C)C(=O)N[C@@H](CCCNC(=N)N)C(=O)N[C@@H](Cc1ccccc1)C(=O)NCC(=O)O) [CTX-1528],1.9,182
Ac-[Nle][dA]H[Phe(4-I)][dR]WDRFG-OH (SMILES CCCC[C@H](NC(C)=O)C(=O)N[C@H](C)C(=O)N[C@@H](Cc1c[nH]cn1)C(=O)N[C@@H](Cc1ccc(I)cc1)C(=O)N[C@H](CCCNC(=N)N)C(=O)N[C@@H](Cc1c[nH]c2ccccc12)C(=O)N[C@@H](CC(=O)O)C(=O)N[C@@H](CCCNC(=N)N)C(=O)N[C@@H](Cc1ccccc1)C(=O)NCC(=O)O) [CTX-1501],2800,0.01
Ac-[Nle][dA]H[Phe(4-F)]R[dW]DRFG-OH (SMILES CCCC[C@H](NC(C)=O)C(=O)N[C@H](C)C(=O)N[C@@H](Cc1c[nH]cn1)C(=O)N[C@@H](Cc1ccc(F)cc1)C(=O)N[C@@H](CCCNC(=N)N)C(=O)N[C@H](Cc1c[nH]c2ccccc12)C(=O)N[C@@H](CC(=O)O)C(=O)N[C@@H](CCCNC(=N)N)C(=O)N[C@@H](Cc1ccccc1)C(=O)NCC(=O)O) [CTX-1518],1.9,1560
